This note sets out measurements from patent US20240287202A1 (XYPHOS BIOSCIENCES, published 2024).

The target of assay [1] is T1, A1-A2 domain of human ULBP3 with C-terminal 6x-His tag (monomer) (human, UniProt Q9BZM4 30-212).
T1 construct: range 30-212; also called MIC-His ligand
T1 sequence: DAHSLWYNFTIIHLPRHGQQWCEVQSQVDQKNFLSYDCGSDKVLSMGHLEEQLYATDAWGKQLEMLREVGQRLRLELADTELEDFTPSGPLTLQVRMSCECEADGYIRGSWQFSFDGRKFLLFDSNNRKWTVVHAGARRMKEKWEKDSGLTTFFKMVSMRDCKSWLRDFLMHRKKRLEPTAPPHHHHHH
Put plainly: Octet BLI, Fc-iNKG2D.AF on AHC tips, monomeric ligand (FIG. 3A). An excerpt:
(§1) Library design and phage panning performed was as described for iNKG2D. […] Data are representative of two experiments. […] Error bars represent ±SD of technical replicates.
(In BLI a coated tip is dipped into the sample, and binding shifts an interference pattern.)

The target in assay [2] is T2, A1-A2 domain of human MICA*001 with C-terminal 6x-His tag (monomer) (human, UniProt Q29983 24-205).
T2 construct: range 24-205; also called MIC-His ligand
T2 sequence: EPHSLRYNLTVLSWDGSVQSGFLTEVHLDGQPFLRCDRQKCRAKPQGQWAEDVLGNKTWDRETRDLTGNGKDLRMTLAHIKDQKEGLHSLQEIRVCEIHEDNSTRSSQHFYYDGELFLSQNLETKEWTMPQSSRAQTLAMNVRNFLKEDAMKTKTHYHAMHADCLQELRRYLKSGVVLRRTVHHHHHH
Described as above.
Description: as §1

The target in assay [3] is T3, A1-A2 domain of human MICB with C-terminal 6x-His tag (monomer) (human, UniProt Q29980 24-205).
T3 construct: range 24-205; also called MIC-His ligand
T3 sequence: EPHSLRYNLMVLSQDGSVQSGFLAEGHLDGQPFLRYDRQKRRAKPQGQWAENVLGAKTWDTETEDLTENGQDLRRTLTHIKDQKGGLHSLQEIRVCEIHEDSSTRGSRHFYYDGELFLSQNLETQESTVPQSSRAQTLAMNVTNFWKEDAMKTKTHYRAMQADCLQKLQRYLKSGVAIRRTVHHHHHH
Briefly: Octet BLI, response against concentration (legend: monomeric ligands; axis on the sheet: nM Fc-iNKG2D.AF).

For a further assay, the target named is T4, MICB-Fc (R&D Systems) (human, UniProt Q29980 23-298, limits assumed).
T4 construct: Bought; also called Ligand-Fc fusion; not shown: Fc of the bought fusion; not described
T4 sequence (looked up): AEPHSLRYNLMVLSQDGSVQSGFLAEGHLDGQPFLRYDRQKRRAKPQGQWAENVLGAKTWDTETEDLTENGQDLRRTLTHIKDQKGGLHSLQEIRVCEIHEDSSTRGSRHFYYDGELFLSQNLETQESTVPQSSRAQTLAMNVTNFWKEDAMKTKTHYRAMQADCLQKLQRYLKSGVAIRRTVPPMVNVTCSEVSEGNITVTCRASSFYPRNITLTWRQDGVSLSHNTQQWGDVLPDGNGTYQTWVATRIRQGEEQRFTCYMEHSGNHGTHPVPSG
Briefly: ELISA; ligand-Fc coated, biotinylated Fc-iNKG2D.YA, streptavidin-HRP (legend: the Fc-NKG2D is titrated; axis on the sheet: nM ligand-Fc). In general terms: An ELISA detects its analyte on a solid surface through an enzyme-linked reagent.

The target of another assay is T5, ULBP2-Fc (R&D Systems) (human, UniProt Q9BZM5 26-217).
T5 construct: Bought; also called Ligand-Fc fusion; not shown: Fc of the bought fusion; not described
T5 sequence (looked up): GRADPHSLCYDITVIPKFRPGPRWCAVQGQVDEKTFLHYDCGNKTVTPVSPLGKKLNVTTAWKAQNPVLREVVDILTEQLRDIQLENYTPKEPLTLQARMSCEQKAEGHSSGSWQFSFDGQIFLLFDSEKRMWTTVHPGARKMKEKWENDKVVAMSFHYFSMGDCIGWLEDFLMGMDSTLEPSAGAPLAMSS
The description is as above.

Another assay addresses T6, ULBP3-Fc (R&D Systems) (human, UniProt Q9BZM4 30-217).
T6 construct: Bought; also called Ligand-Fc fusion; not shown: Fc of the bought fusion; not described
T6 sequence (looked up): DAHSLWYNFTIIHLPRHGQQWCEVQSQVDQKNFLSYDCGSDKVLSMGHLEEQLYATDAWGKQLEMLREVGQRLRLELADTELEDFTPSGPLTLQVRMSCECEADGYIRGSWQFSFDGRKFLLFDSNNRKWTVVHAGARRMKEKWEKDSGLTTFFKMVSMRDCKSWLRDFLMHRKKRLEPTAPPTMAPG
The description is as above.

The target of another assay is T7, ULBP1-Fc (R&D Systems) (human, UniProt Q9BZM6 26-216).
T7 construct: Bought; also called Ligand-Fc fusion; not shown: Fc of the bought fusion; not described
T7 sequence (looked up): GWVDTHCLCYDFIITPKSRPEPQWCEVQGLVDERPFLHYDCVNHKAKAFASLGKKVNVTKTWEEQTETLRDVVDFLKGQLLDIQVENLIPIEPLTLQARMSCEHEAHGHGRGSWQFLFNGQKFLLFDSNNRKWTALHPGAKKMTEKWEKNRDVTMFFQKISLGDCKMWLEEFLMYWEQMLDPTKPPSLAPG
Described as above.

In another assay the target is T8, MICA-Fc (R&D Systems) (human, UniProt Q29983 24-308, limits assumed).
T8 construct: Bought; also called Ligand-Fc fusion; not shown: Fc of the bought fusion; not described
T8 sequence (looked up): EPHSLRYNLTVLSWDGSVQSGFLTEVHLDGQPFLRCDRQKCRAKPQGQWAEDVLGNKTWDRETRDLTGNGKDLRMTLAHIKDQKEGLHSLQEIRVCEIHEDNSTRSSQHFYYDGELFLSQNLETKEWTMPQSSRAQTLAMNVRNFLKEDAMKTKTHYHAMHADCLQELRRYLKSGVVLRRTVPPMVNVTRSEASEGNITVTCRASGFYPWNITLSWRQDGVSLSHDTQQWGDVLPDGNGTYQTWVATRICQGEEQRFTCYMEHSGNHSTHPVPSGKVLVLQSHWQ
The assay is described as above.

Another assay has as its target T9, ULBP4-Fc (R&D Systems) (human, UniProt Q8TD07 31-225, limits assumed).
T9 construct: Bought; also called Ligand-Fc fusion; not shown: Fc of the bought fusion; not described
T9 sequence (looked up): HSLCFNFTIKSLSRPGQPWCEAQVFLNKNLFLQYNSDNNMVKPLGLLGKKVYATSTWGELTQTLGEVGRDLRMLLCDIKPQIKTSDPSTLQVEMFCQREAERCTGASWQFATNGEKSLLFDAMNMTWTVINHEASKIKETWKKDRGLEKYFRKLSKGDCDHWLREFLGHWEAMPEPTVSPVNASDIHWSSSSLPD
Described as above.

The target of assay [4] is T10, His-tagged monomeric ULBP2 R81W (human, UniProt Q9BZM5 29-212).
T10 construct: range 29-212; Construct limits are stated only for wild-type ULBP2-His; position 81 counts on the mature protein, not on the UniProt entry
T10 sequence: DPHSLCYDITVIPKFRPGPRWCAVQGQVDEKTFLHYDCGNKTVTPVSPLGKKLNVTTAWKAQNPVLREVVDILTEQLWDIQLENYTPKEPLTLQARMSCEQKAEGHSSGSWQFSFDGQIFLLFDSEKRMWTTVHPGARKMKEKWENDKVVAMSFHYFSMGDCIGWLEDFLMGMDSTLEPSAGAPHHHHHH
Put plainly: Octet BLI; Fc-iNKG2D.YA captured on AHC tips, dilution series of His-tagged monomeric ligand. The source says: YA. […] YA were captured with anti-human IgG Fc capture (AHC) biosensor tips then associated with a dilution series of ligand. Data are from single experiments.

In assay [5] the target is T1, A1-A2 domain of human ULBP3 with …. The description is as above. An excerpt:
(§2) Note that all axes are to the same scale (Binding-0 nm, 0.4 nm. 0.8 nm, 1.2 nm (y-axis); Time-0 s, 50 s, 100 s, 150 s, 200 s, 250 s, 300 s, 350 s (x-axis). Data is representative of a single experiment.

The target of assay [6] is T2, A1-A2 domain of human MICA*001 with …. The description is as above.
Description: as §2

Assay [7] deals with T3, A1-A2 domain of human MICB with …. The assay is described as above.
Description: as §2

What is called Kd is the constant that tells how readily two partners part at equilibrium. The low end stands for tighter binding, the high end for weaker binding.

B1: Fc-iNKG2D.AF (NKG2D ectodomain Y152A/Y199F fused to the C-terminus of human IgG1 Fc) (Fc fusion)
chain: IEGRFLNSLFNQEVQIPLTESYCGPCPKNWICYKNNCYQFFDESKNWYESQASCMSQNASLLKVYSKEDQDLLKLVKSAHWMGLVHIPTNGSWQWEDGSILSPNLLTIIEMQKGDCALYASSFKGFIENCSTPNTYICMQRTV
notes: range 78-216; also called Fc-NKG2D.AF; not shown: human IgG1 Fc
For B1, the binding result was “no binding” in assay [1], “no binding” in assay [2] and “binds” in [3].

B2: Fc-iNKG2D.YA (NKG2D ectodomain Y152A fused to the C-terminus of human IgG1 Fc) (Fc fusion)
chain: IEGRFLNSLFNQEVQIPLTESYCGPCPKNWICYKNNCYQFFDESKNWYESQASCMSQNASLLKVYSKEDQDLLKLVKSAHWMGLVHIPTNGSWQWEDGSILSPNLLTIIEMQKGDCALYASSFKGYIENCSTPNTYICMQRTV
notes: range 78-216; it is not tied by words to this Fc fusion; not shown: human IgG1 Fc
Regarding B2, the binding result with MICB-Fc (R&D Systems), with ULBP2-Fc (R&D Systems), with ULBP3-Fc (R&D Systems), with ULBP1-Fc (R&D Systems), with MICA-Fc (R&D Systems) and in the assay with ULBP4-Fc (R&D Systems) was “no binding (tested: 2000 nM)” throughout. The binding result is recorded as “no binding (tested: 1.2 uM)” in assay [5], “no binding (tested: 1.2 uM)” in assay [6] and “no binding (tested: 0.3 uM)” in assay [7]. Moreover, the Kd in [4] came out at 3.6 µM.
